Data set [1] addresses Non-muscle actin (actin filaments) (UniProt P60709 1-375). Description: cell-based or functional assay.
Data set [2] concerns the molecule itself. As to the kind of experiment: cell-based or functional assay.

Substitutions are numbered along the chain they refer to. In names and notes the source's numbering stands.

B1: His-tagged rat dynamin 2-WT (enzyme, UniProt P39052 1-870, looked up)
chain: MGNRGMEELIPLVNKLQDAFSSIGQSCHLDLPQIAVVGGQSAGKSSVLENFVGRDFLPRGSGIVTRRPLILQLIFSKTEYAEFLHCKSKKFTDFDEVRQEIEAETDRVTGTNKGISPVPINLRVYSPHVLNLTLIDLPGITKVPVGDQPPDIEYQIKDMILQFISRESSLILAVTPANMDLANSDALKLAKEVDPQGLRTIGVITKLDLMDEGTDARDVLENKLLPLRRGYIGVVNRSQKDIEGRKDIRAALAAERKFFLSHPAYRHMADRMGTPHLQKTLNQQLTNHIRESLPTLRSKLQSQLLSLEKEVEEYKNFRPDDPTRKTKALLQMVQQFGVDFEKRIEGSGDQVDTLELSGGARINRIFHERFPFELVKMEFDEKDLRREISYAIKNIHGVRTGLFTPDLAFEAIVKKQVVKLKEPCLKCVDLVIQELISTVRQCTSKLSSYPRLREETERIVTTYIREREGRTKDQILLLIDIEQSYINTNHEDFIGFANAQQRSTQLNKKRAIPNQGEILVIRRGWLTINNISLMKGGSKEYWFVLTAESLSWYKDEEEKEKKYMLPLDNLKIRDVEKGFMSNKHVFAIFNTEQRNVYKDLRQIELACDSQEDVDSWKASFLRAGVYPEKDQAENEDGAQENTFSMDPQLERQVETIRNLVDSYVAIINKSIRDLMPKTIMHLMINNTKAFIHHELLAYLYSSADQSSLMEESAEQAQRRDDMLRMYHALKEALNIIGDISTSTVSTPVPPPVDDTWLQNTSSHSPTPQRRPVSSVHPPGRPPAVRGPTPGPPLIPMPVGATSSFSAPPIPSRPGPQNVFANNDPFSAPPQIPSRPARIPPGIPPGVPSRRAPAAPSRPTIIRPAEPSLLD
Consider B1, for which, in data set [1], the “release of free phosphate (GTPase activity) by dynamin 2 (1.5 uM) with actin filaments (1 uM), 100 mM KCl, relative to that without actin” value turned out to be 6 fold.

B2: His-tagged rat dynamin 2-K562E (enzyme, UniProt P39052 1-870, looked up)
chain: B1 chain with K562E
On to B2, for which the “GTPase activity under low ionic strength buffer, relative to dynamin 2-WT” value in data set [2] was ~0.33 of dynamin 2-WT. Besides, the “release of free phosphate (GTPase activity) by dynamin 2 (1.5 uM) with actin filaments (1 uM), 100 mM KCl, relative to that without actin” value in data set [1] worked out at 4 fold.

These data come from PMC9127447, “The Lipid-Binding Defective Dynamin 2 Mutant in Charcot-Marie-Tooth Disease Impairs Proper Actin Bundling and Actin Organization in Glomerular Podocytes” (Frontiers in Cell and Developmental Biology, 2022).
